Legend:
Experiment in all cases: killing
[1] = target: T1, MAGE-B2 peptide, E7R peptide on HLA-A*02:01 (human)
T1 peptide: GVYDGERHSV

[2] = target: T2, MAGE-B2 peptide, E6F peptide on HLA-A*02:01 (human)
T2 peptide: GVYDGFEHSV

[3] = target: T3, MAGE-B2 peptide, E6I peptide on HLA-A*02:01 (human)
T3 peptide: GVYDGIEHSV

[4] = target: T4, MAGE-B2 peptide, E6A peptide on HLA-A*02:01 (human)
T4 peptide: GVYDGAEHSV

[5] = target: T5, MAGE-B2 peptide, E6Y peptide on HLA-A*02:01 (human)
T5 peptide: GVYDGYEHSV

[6] = target: T6, MAGE-B2 peptide, E7G peptide on HLA-A*02:01 (human)
T6 peptide: GVYDGEGHSV

[7] = target: T7, MAGE-B2 peptide, E6P peptide on HLA-A*02:01 (human)
T7 peptide: GVYDGPEHSV

[8] = target: T8, MAGE-B2 peptide, E6L peptide on HLA-A*02:01 (human)
T8 peptide: GVYDGLEHSV

[9] = target: T9, MAGE-B2 peptide, V10Y peptide on HLA-A*02:01 (human)
T9 peptide: GVYDGEEHSY

[10] = target: T10, MAGE-B2 peptide, E6R peptide on HLA-A*02:01 (human)
T10 peptide: GVYDGREHSV

[11] = target: T11, MAGE-B2 peptide, G5M peptide on HLA-A*02:01 (human)
T11 peptide: GVYDMEEHSV

[12] = target: T12, MAGE-B2 peptide, V10M peptide on HLA-A*02:01 (human)
T12 peptide: GVYDGEEHSM

[13] = target: T13, MAGE-B2 peptide, G1V peptide on HLA-A*02:01 (human)
T13 peptide: VVYDGEEHSV

[14] = target: T14, MAGE-B2 peptide, G1N peptide on HLA-A*02:01 (human)
T14 peptide: NVYDGEEHSV

[15] = target: T15, MAGE-B2 peptide, G1E peptide on HLA-A*02:01 (human)
T15 peptide: EVYDGEEHSV

[16] = target: T16, MAGE-B2 peptide, V2A peptide on HLA-A*02:01 (human)
T16 peptide: GAYDGEEHSV

[17] = target: T17, MAGE-B2 peptide, G1F peptide on HLA-A*02:01 (human)
T17 peptide: FVYDGEEHSV

[18] = target: T18, MAGE-B2 peptide, G1Y peptide on HLA-A*02:01 (human)
T18 peptide: YVYDGEEHSV

[19] = target: T19, MAGE-B2 peptide, V10T peptide on HLA-A*02:01 (human)
T19 peptide: GVYDGEEHST

[20] = target: T20, MAGE-B2 peptide, G1L peptide on HLA-A*02:01 (human)
T20 peptide: LVYDGEEHSV

[21] = target: T21, MAGE-B2 peptide, G1W peptide on HLA-A*02:01 (human)
T21 peptide: WVYDGEEHSV

[22] = target: T22, MAGE-B2 peptide, G1P peptide on HLA-A*02:01 (human)
T22 peptide: PVYDGEEHSV

[23] = target: T23, MAGE-B2 peptide, V10F peptide on HLA-A*02:01 (human)
T23 peptide: GVYDGEEHSF

[24] = target: T24, MAGE-B2 peptide, V2S peptide on HLA-A*02:01 (human)
T24 peptide: GSYDGEEHSV

[25] = target: T25, MAGE-B2 peptide, V2G peptide on HLA-A*02:01 (human)
T25 peptide: GGYDGEEHSV

[26] = target: T26, MAGE-B2 peptide, G1M peptide on HLA-A*02:01 (human)
T26 peptide: MVYDGEEHSV

[27] = target: T27, MAGE-B2 peptide, G5L peptide on HLA-A*02:01 (human)
T27 peptide: GVYDLEEHSV

[28] = target: T28, MAGE-B2 peptide, V10C peptide on HLA-A*02:01 (human)
T28 peptide: GVYDGEEHSC

[29] = target: T29, MAGE-B2 peptide, D4W peptide on HLA-A*02:01 (human)
T29 peptide: GVYWGEEHSV

[30] = target: T30, MAGE-B2 peptide, G1T peptide on HLA-A*02:01 (human)
T30 peptide: TVYDGEEHSV

[31] = target: T31, MAGE-B2 peptide, V2C peptide on HLA-A*02:01 (human)
T31 peptide: GCYDGEEHSV

[32] = target: T32, MAGE-B2 peptide, G5R peptide on HLA-A*02:01 (human)
T32 peptide: GVYDREEHSV

[33] = target: T33, MAGE-B2 peptide, G1Q peptide on HLA-A*02:01 (human)
T33 peptide: QVYDGEEHSV

[34] = target: T34, MAGE-B2 peptide, G1C peptide on HLA-A*02:01 (human)
T34 peptide: CVYDGEEHSV

[35] = target: T35, MAGE-B2 peptide, D4E peptide on HLA-A*02:01 (human)
T35 peptide: GVYEGEEHSV

[36] = target: T36, MAGE-B2 peptide, G1D peptide on HLA-A*02:01 (human)
T36 peptide: DVYDGEEHSV

[37] = target: T37, MAGE-B2 peptide, E6N peptide on HLA-A*02:01 (human)
T37 peptide: GVYDGNEHSV

[38] = target: T38, MAGE-B2 peptide, E6D peptide on HLA-A*02:01 (human)
T38 peptide: GVYDGDEHSV

[39] = target: T39, MAGE-B2 peptide, G5P peptide on HLA-A*02:01 (human)
T39 peptide: GVYDPEEHSV

Measured: binding result

B1: TCR3 (TCR, V domains shown)
Valpha: AQKVTQAQTEISVVEKEDVTLDCVYETRDTTYYLFWYKQPPSGELVFLIRRNSFDEQNEISGRYSWNFQKSTSSFNFTITASQVVDSAVYFCALSVLRMDSSYKLIFGSGTRLLVRP
Vbeta: NAGVTQTPKFRVLKTGQSMTLLCAQDMNHEYMYWYRQDPGMGLRLIHYSVGEGTTAKGEVPDGYNVSRLKKQNFLLGLESAAPSQTSVYFCASSLQGAGQPQHFGDGTRLSIL
recognises: [1] | [2] | [3] | [4] | [5] | [6] | [7] | [8] | [9] | [10]

B2: TCR1 (TCR, V domains shown)
Valpha: KQEVTQIPAALSVPEGENLVLNCSFTDSAIYNLQWFRQDPGKGLTSLLLIQSSQREQTSGRLNASLDKSSGRSTLYIAASQPGDSATYLCAAMKTSYDKVIFGPGTSLSVIP
Vbeta: GEEVAQTPKHLVRGEGQKAKLYCAPIKGHSYVFWYQQVLKNEFKFLISFQNENVFDETGMPKERFSAKCLPNSPCSLEIQATKLEDSAVYFCASSQGQGGYGYTFGSGTRLTVV
not listed: [1] | [2] | [3] | [4] | [5] | [6] | [7] | [8] | [9] | [10] | [37] | [38] | [39]
recognises: all other assays above

B3: TCR2 (TCR, V domains shown)
Valpha: QKEVEQNSGPLSVPEGAIASLNCTYSDRGSQSFFWYRQYSGKSPELIMSIYSNGDKEDGRFTAQLNKASQYVSLLIRDSQPSDSATYLCAVNIPFSNSGGYQKVTFGTGTKLQVIP
Vbeta: NAGVTQTPKFRVLKTGQSMTLLCAQDMNHEYMYWYRQDPGMGLRLIHYSVGEGTTAKGEVPDGYNVSRLKKQNFLLGLESAAPSQTSVYFCASRHPGQYNQPQHFGDGTRLSIL
recognises: [37] | [38] | [39]

— patent US20240100162A1 (published 2024)
